According to the nanobody polyreactivity screen of Harvey et al. (2022):

assay: yeast display, Sf9 membrane polyspecificity reagent, FACS + sequencing; frameworks hold sequencing errors
Procedure, shortened: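 Polyreactivity labels are assigned by the sorting gate from which each nanobody was recovered. The gates were low and high (top ~1%), set on anti-HA fluorescence for expression and streptavidin fluorescence for reagent binding. Before sorting, galactose-induced (36–48 hours) yeast display cells were stained for 1 hour at 4 °C with 10% biotinylated, detergent-solubilized Sf9 membrane reagent.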

Row | Sequence | polyreactivity (PSR sort gate)
1 | QVQLVESGGGLVQAGGSLRLSCAASGSIFLNYAMGWYRQAPGKERELVAAISYRVGRTYYADSVKGRFTISRDNAKNTVYLQMNSLKPEDTAVYYCAADSRSPGHDYWGQGTQVTVSS | high polyreactivity
2 | QVQLVESGGGLVQAGGSLRLSCAASGSIFLRNAMGWYRQAPGKERELVASITWNGASTSYADSVKGRFTISRDNAKNTVYLQMNSLKPEDTAVYYCAAVTVQDSNLKYGYWGQGTQLTVSS | low polyreactivity
3 | QVQLVESGGGLVQAGGSLRLSCAASGSIFLRYAMGSYRQAPGKDRELVAAITRSGGSTYYADSVKGRFTISRDNANNTVDLQMNSLKPEDTAVYYCAAYTLVTVGYDYWGQGTQVTVSS | high polyreactivity
4 | QVQLVESGGGLVQAGGSLRLSCAASGSIFLRYAMGWYRQAPGKERELVAAISLSGGNTYYADSVKGRFTISRDNSKNTVYLQMNSLKPEDTAVYYCAATRTKRKFDYWGQGTQVTVSS | high polyreactivity
5 | QVQLVESGGGLVQAGGSLRLSCAASGSIFLRYAMGWYRQAPGKERELVAAITTGGGSTYYADSVKGRFTISRDNAKNTVYLQMNRLKPEDPAVYYCAKRAQYHWRGRDDYSYYYWGQGTQVTVSS | low polyreactivity
6 | QVQLVESGGGLVQAGGSLRLSCAASGSIFLRYAMGWYRQAPGKERELVAGITSGGSTNYADSVKGRFTISRDNAKNCVYLQMNSLKPEDTAVYYCNKDLPDWGHEWNGDSWGQGTQVTVSS | low polyreactivity
7 | QVQLVESGGGLVQAGGSLRLSCAASGSIFLRYDMGWYRQAPGKERELVAAISRGGSTYYADSVKGRFTISRDNAKNTVYLQLNSLKPEDTAVYSCAARRFGREHGYWGQGTQVTVSS | high polyreactivity
8 | QVQLVESGGGLVQAGGSLRLSCAASGSIFLSNPMGWYRQAPGKERELVAAITSGGRTTYADSVKGRFTISRDNAKNTVYLQMNSLKPEDTAVYYCAARQRWYWRGYDYWGQGTQVTVSS | high polyreactivity
9 | QVQLVESGGGLVQAGGSLRLSCAASGSIFLSYDMGWYRQAPGKERELVAAITQSGGSTYYADSVKGRFTISRDNAKNTVYLQMNSLKPEDTAVYYCAADYGYFPQETYPTYGYYYWGQGTQVTVSS | low polyreactivity
10 | QVQLVESGGGLVQAGGSLRLSCAASGSIFLWNAMGWYRQAPGKERELVAAISSSGGSTYYADSVKGRFTISRDNAKNTVYLQLNSLKPEDTAVYYCAAVSRSYYNSYNYWGQGTQVTVSS | high polyreactivity
11 | QVQLVESGGGLVQAGGSLRLSCAASGSIFLYNAMGWYRQAPGKERELVAAISASGGSTYYADSVKGRFTISRDNAKNTVYLQMNSLKPEDTEVYFCAAQYSDYDGFTWPLPPRYDYWGQGTQVTVSS | high polyreactivity
12 | QVQLVESGGGLVQAGGSLRLSCAASGSIFLYNAMGWYRQAPGKERELVAGITFIGGSTYYADSVKGRFTISRDNAKNTVYLQMNSLKPEDTAVYYCNADVAPGIFYGYDSWGQGTQVTVSS | low polyreactivity
13 | QVQLVESGGGLVQAGGSLRLSCAASGSIFLYNAMGWYRQAPGKERELVASISSGGITDYADSVKGRFTISRDNAKNTVYLQMNSLKPEDTAVYYCAATYSVYLDYAGGGPLYNHWGQGTQVTVSS | low polyreactivity
14 | QVQLVESGGGLVQAGGSLRLSCAASGSIFLYNAMGWYRQAPGKERELVASITYGSGSTYYADSVKGRFTISRDNAKNTVYLQMNSLKPEDTAVYYCAATRYYRHGRYDSWGQGTQVTVSS | high polyreactivity
15 | QVQLVESGGGLVQAGGSLRLSCAASGSIFLYNAMGWYRQAPGKERELVATITYIGGRTYYADSVKGRFTISRDNAKNTVYLQMNSLKPEDSAVYYCAAEYYVISSPSFYEYDYWGQGTQVTVSS | low polyreactivity
16 | QVQLVESGGGLVQAGGSLRLSCAASGSIFLYNDMGWYRQAPGKERELVAAISSGGNTNYADSVTGRFTISRDNAKNTVYLQMNSLKPEDTAVYYCNAAWIRVFQYTLYKYVYWGQGTQVTVSS | low polyreactivity
17 | QVQLVESGGGLVQAGGSLRLSCAASGSIFLYNTKGWYRQAPGKERELVAAISFSGVTTYYADSVKGRFTISRDNAKNTVYLQMNSLKPEDTAVYYCNKYLWKFTNSPLGDYYWGQGTQVTVSS | high polyreactivity
18 | QVQLVESGGGLVQAGGSLRLSCAASGSIFLYYAMGWYRQAPGKERELVAGIRRGGRTNYADSVKGRFTIPRDNAKNTVYLQMNSLKPEDTAVYYCAKGGYWGQGTQVTVSS | high polyreactivity
19 | QVQLVESGGGLVQAGGSLRLSCAASGSIFNANAMGWYRQAPGNERELVAGIRSGSSTNYADSVKGRFTISRDNAKNTVYLQMNSLKPEDTAVYYCATEGYWVYGFDDEYWGQGTQVTVSS | low polyreactivity
20 | QVQLVESGGGLVQAGGSLRLSCAASGSIFNDNVMGWYRPAPGKERELVAGISRSGTRTYYADSVKGRFTISRDNAKNTVYLQMNSLKPEDNAVYYCAAAYGQARRYNGSQYGSWGQGTQVTVSS | high polyreactivity

Row | Sequence | polyreactivity (PSR sort gate)
21 | QVQLVESGGGLVQAGGSLRLSCAASGSIFNDYAMGWYRQAPGKERELVATISSGGDTYYADSVKGRFTISRDNAKNTVYLQMNSLKPEDTAVYYCAALTGGYVVYTDSYDYWGQGTQVTVSS | low polyreactivity
22 | QVQLVESGGGLVQAGGSLRLSCAASGSIFNGNAMGWYRQAPGKERELVAAISSGDSTNYADSVKGRFTISRDNAKNTVYLQMNSLKPEDTAVYYCNAVHRSIARGGGMDYWGQGTQVTVSS | low polyreactivity
23 | QVQLVESGGGLVQAGGSLRLSCAASGSIFNGYAMGWYRQAPGKERELVAAISKRGGSTYYADSVKGRFTISRDNAKNTVYLQMNSLKPEDTAVYYCAARRLFPYGYWGQGTQVTVSS | high polyreactivity
24 | QVQLVESGGGLVQAGGSLRLSCAASGSIFNGYAMGWYRQAPGKERELVAAISRRGGSTYYADSVKGRFTISRVNAKNTVYLQMISLKPEDTAVYYCAADPRRPLSPQLSDYWGQGTQVTVSS | high polyreactivity
25 | QVQLVESGGGLVQAGGSLRLSCAASGSIFNGYDMGWYRQAPWKERELVAAISLSGDSTYYADSVKGRFTISRDNAKNTVYLQMNSLKPEDTAVYYCAKGTISSYSPYWYYDYSDYEYWGQGTQVTVSS | low polyreactivity
26 | QVQLVESGGGLVQAGGSLRLSCAASGSIFNGYTMGWYRQAPRKERELVAAISSRGGITYYADSVKGRFTISRDNAKNTVYLQMNSLKPEDTAVYYCAKTSGYYQAGSLKYGYWGQGTQVTVSS | high polyreactivity
27 | QVQLVESGGGLVQAGGSLRLSCAASGSIFNIYAMGWYRQAPGKESELVAAISYSGGSTYYADSVKGRFTISRDNAKNTVYLQMNSLKPEDTAVYYCNADGYYFLISNANPLGYWGQGTQVTVSS | low polyreactivity
28 | QVQLVESGGGLVQAGGSLRLSCAASGSIFNIYARGWYRQAPGKERELVATITGIADSTYYADSVKGRFTISRDNAKNTVYLQMNSLKPEDTAVYYCNADPSGVFFYSLEFDYWGQGTQVTVSS | low polyreactivity
29 | QVQLVESGGGLVQAGGSLRLSCAASGSIFNKYAMGWYRQAPGKERELVAAISVSGTRTYYADSVKGRFTISRDNAKNTVYLQMNSLKPEDSAVYYCATKFFRTAYEYWGQGTQVTVSS | high polyreactivity
30 | QVQLVESGGGLVQAGGSLRLSCAASGSIFNLNAMGWYRQAPGTEREFVAGITYSAGRTYYADSVKGRFTISRDNAKNTVYLQMNSLKPVDTAVYYCAARIYSKFTSYGILDSWGQGTQVTVSS | high polyreactivity
31 | QVQLVESGGGLVQAGGSLRLSCAASGSIFNLYALGWYRKAPGKERELVAAIRWDGGSTYYADSVKGRFTISRDNAKNTVYLQMNSLKPEDTAVYYCAAETVYFRLLILDYWGQGTQVTVSS | high polyreactivity
32 | QVQLVESGGGLVQAGGSLRLSCAASGSIFNLYTMGWYRQAPGKEMELVAVITGGGSTYYADSVKGRFTISRDNAKNTVYLQMNSLKPADTAVYYCAAKGPFYKSSRTGDYWGQGTQVTVSS | low polyreactivity
33 | QVQLVESGGGLVQAGGSLRLSCAASGSIFNPYAMGWYRQAPGKQRELVAAISYTGGRTYYADSVKGRFTISRDNAQNTVYLQMNSLKPEDTAVYYCIADYIYSFYWSFYEYDYWGQGTQVTVSS | high polyreactivity
34 | QVQLVESGGGLVQAGGSLRLSCAASGSIFNPYDMGWYRQAPGKERELVAAIDWSGGSTYYADSVKGRFTISRDNAKNTVYLQMNSLKPEDTAVYYCNAESYQDTLFGADNDYDYWGQGTLVTVSS | low polyreactivity
35 | QVQLVESGGGLVQAGGSLRLSCAASGSIFNQYAMGWYRQAPGKERELVARIRGSTGTTYYADSVKGRFTISRDNAKNTVYLQMNSLKPEDTAVYYCNAARYQGRSRFDYWGQGTQVTVSS | high polyreactivity
36 | QVQLVESGGGLVQAGGSLRLSCAASGSIFNRNAMGWYRQAPGKERELVAAITGRGGSTYYADSVKGRFTISRDNAKNTVYLQMDSLKPEDTAVYYCAAETLAPRAYYYWGQGTQVTVSS | low polyreactivity
37 | QVQLVESGGGLVQAGGSLRLSCAASGSIFNRYAMGWYRQAPGKERELVAVIRWRDGSTYYADSVKGRFTISRDNAKNTVYLQMNSLKPEDTAVYYCAAVYWGEEYEYWGQGTQVTVSS | low polyreactivity
38 | QVQLVESGGGLVQAGGSLRLSCAASGSIFNRYAMRWYRQAPGKERALVAAISRSGSTYYADSVKGRFTISRDNAKNTVYLQMNSLKPEDTAVYYCNARGTTHHTSYDYWGQGTQVTVSS | low polyreactivity
39 | QVQLVESGGGLVQAGGSLRLSCAASGSIFNSNAMGWYRQAPGKERELVAAITGSGGRTYYADSVKGRFTISRDNAKNTVYLQMNSLKPEDTAVYYCNAVTYSRRYAYYYWGQGTQVTVSS | high polyreactivity
40 | QVQLVESGGGLVQAGGSLRLSCAASGSIFNSYAMGWYRQAPGKERELVAAISIRGTRTYYADSVKGRFTISRDNAKNTVYLQMNSLKPEDTAVYYCAADASYTEGMDYWGQGTQVTVSS | high polyreactivity
